Measurements taken from the supplement of paper PMC9170038.

Assays:
MS2 coat protein [1] = assay: apparent KD of MS2 coat protein, switch ON state; designed switch direction (-1 OFF switch, 1 ON switch): -1; higher = weaker reporter binding; settings: FMN input: 0 or 200 uM; Eterna round: R93 (includes R88 designs)
Method in brief: (§1)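 Apparent KD is reported per design as the median of normalised binding-curve fits across its clusters. The RNA switches were made by on-chip transcription from Illumina sequencing clusters. SNAP-549-labelled MS2 coat protein was then added in twofold steps (0.7 or 1.5 nM to 3 µM; 0.8–1.5 h to 10–20 min per step) in 100 mM Tris-HCl pH 7.5, 80 mM KCl, 4 mM MgCl2, without or with constant ligand.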

MS2 coat protein [2] = assay: apparent KD of MS2 coat protein, switch OFF state (with FMN for OFF switches, without FMN for ON switches); designed switch direction (-1 OFF switch, 1 ON switch): -1; higher = weaker reporter binding; settings: FMN input: 0 or 200 uM; Eterna round: R93 (includes R88 designs)
Method in brief: as §1

Sequence | apparent KD of MS2 coat protein (MS2 coat protein [1]) [nM] | apparent KD of MS2 coat protein (MS2 coat protein [2]) [nM]
AAGAAGGUAGGAUAUACUAACGAAACUAAUGCAUAGAUAAAACAUGAGGAUCACCCAUGUAGAAGGGCCAGAAU [JR_Exc002_Sub015] | 43.8 | 26.6
AAGAAUCGAGGAUAUACAUGAGGAUCACCCAUGUAAAAGAAAGAGGGAAAAGAGAAAAGUAGAAGGCGAAAGAA [Ptolemy Memphitis] | 45.9 | 21.6
AAAAAACAUGAGGAUCACCCAUGUAAGGAUAUGCUAAAAAAAAAAAAAAAAAAAAAAUGCAGAAGGUACAAAAA [water's exclusion 1 again] | 40.4 | 40.2
GGUUGGCGAGGAUAUACAUGAGGAUCACCCAUGUGAGAGAAAAAAGUGAGAAAGCAAAGUAGAAGGCGCUGACG [salish99-ex3-27] | 51.4 | 321
AAAAAACAUGAGGAUCACCCAUGUGAGGAUAUCCAGAAGGGAAUAAAAUAACACGAAAGGAGAAGGCACAAAAA [Ex 1 May 36] | 34 | 31.7
AAAAAGAUAGGAUAUACGAACAUGUCAAAAGACGUGAAGGGACAUGAGGAUCACCCAUGUAGAAGGAUUAAAAA [JL Wide Open 39] | 38.8 | 17.2
AAGAAUGAAGGAUAUACAUGAGGAUCACCCAUGUAAGAGAAAGAGGGAAAAGAGAAAAGUAGAAGGUCAAAGAA [Ruby 72] | 22 | 33.7
AAGUACUCAGGAUAUACAUGAGGAUCACCCAUGUGAAAAAAGCGUAAAAAACGCACAUGUAGAAGGGAGUACAA [JL In thr Red Again] | 122 | 333
AAGAAGUGAGGAUAUAGUUGCACUAGCUAAUGCUAGUGCAACUAGAAGGCACAUGAGGAUCACCCAUGUAAAAG [Meechl Ex4 2] | 40.6 | 46.7
AAAAAACAUGAGGAUCACCCAUGUGAGGAUAUGACUUAAAUAAAGAAAGAAGAAAUAGUCAGAAGGCACAAAUA [Mat - Mod of Nando] | 28.6 | 42.9
AAGGGACAUGAGGAUCACCCAUGUCAGGAUAUGAUGCGAAUAAAGAAAGAAGAAAGCAUCAGAAGGGACGCCUA [58%, Disencluded 3, 6] | 19.3 | 27.6
AAAGGGUCAGGAUAUCGAUGAAUAAUAAAACAAAGGAACAUCGAGAAGGGACAUGAGGAUCACCCAUGUAUAAC [May 80] | 42.4 | 48.4
GAAAAGUCAGGAUAUGCAGACAAAGCAAAAAAGCAAUGUCUGCAGAAGGGACAUGAGGAUCACCCAUGUAAAAA [Mat - Exclusion 4 - Mayanna - D115] | 51.4 | 45.2
AAAAAACAUGAGGAUCACCCAUGUCAGGAUAUGAACGAAAAUAAAUAAAAAUAAAAGUUCAGAAGGGACGAAAA [66%, Wbt, 17] | 38 | 41.5
AAAGAUGGAGGAUAUACAUGAGGAUCACCCAUGUGGAAUCUAAAAUGGGAAAAAGAAAGUAGAAGGCCAUAAAA [Ex 3 May 40] | 36.7 | 83.1
CUCAAGUCAGGAUAUUUAAGAAAAGAAGAGAAAGAAAAGAAAAAGAAGGGACAUGAGGAUCACCCAUGUAAGAA [EteRNA is fun!] | 60.4 | 41.3
AACUGACAUGAGGAUCACCCAUGUCAGGAUAUGACAUCGAAAAAAAAAAAAAUCGUUGUCAGAAGGGACAUGAA [Design 77: Sub-opt SB] | 16.7 | 13.1

Sequence | apparent KD of MS2 coat protein (MS2 coat protein [1]) [nM] | apparent KD of MS2 coat protein (MS2 coat protein [2]) [nM]
AAAAAACAUGAGGAUCACCCAUGUCAGGAUAUGCCAACCUAAAAAAAAAAAAAAAAACGUAGAAGGGACAAAAA [Bilbo Confounded 2 - Jieux - Exclusion 1] | 28.7 | 23.5
AUAAAGUCAGGAUAUGUAAAAAUAACGAAAGUUAUAAAUAAACAGAAGGGACAUGAGGAUCACCCAUGUACAAU [Opal 15] | 25.4 | 21.2
UCUUGACAUGAGGAUCACCCAUGUCAGGAUAUAGUAGGACAAAUAAAUAAAAGUUCUACUAGAAGGGAUAUGGA [Design 18: G-U+] | 14.3 | 12.7
ACGUUGAGAGGAUAUACGAACAUGUCAAAAGACGUGAAGGGACAUGAGGAUCACCCAUGUAGAAGGCUCAACGA [Mat - Exclusion 2 - JL mod - D9] | 46.3 | 186
AACAGUACAGGAUAUACAUGAGGAUCACCCAUGUGAGAAUUAAGUGGAGAACCACAAAGUAGAAGGGUACUGAA [Mat - Exclusion 3 - JL mod - D8] | 39.2 | 147
AAUAAGACAGGAUAUACUAAAGAAAUGAAAAGAAAUAAAGAACAUGAGGAUCACCCAUGUAGAAGGGUCAAUAA ['Apepi] | 50.3 | 32.4
AAGAAGUGAGGAUAUACGCGAACAAAAAAAAAAAAGAAAGCGUAGAAGGCACAUGAGGAUCACCCAUGUCCAAA | 27.7 | 34.9
ACAGUUACAGGAUAUACAAGGGUAACUUCAAAUAAACCUCUACAUGAGGAUCACCCAUGUAGAAGGGUAACUGA [Ex2 Design 200 (maybe): Random 16] | 22.8 | 21.7
AACAGUACAGGAUAUACAUGAGGAUCACCCAUGUAAAAAUAAAAAGGGAACUCAAAAAGUAGAAGGGUACUGGA [Moding Maslow revisited (73) 14] | 72.6 | 32.5
AGGUGACAUGAGGAUCACCCAUGUCAGGAUAUAUACACCACCGGCGUGAAGCCGGCGGAUAGAAGGGACAAAAU [Anesar] | 15.6 | 18.2
AGCUAGUCAGGAUAUACGAAAAUGCUAGAAGACGUAAGGGAACAUGAGGAUCACCCAUGUAGAAGGGACUAGCA [Diamond 46] | 21.9 | 30.4
AAGAAGUCAGGAUAUGCCAGAGAUCACGAAAGUGACGAGUAGCAGAAGGGACAUGAGGAUCACCCAUGUAAAGA [Opal 7] | 39.8 | 45
AAGUUAUUAGGAUAUACUAGUGCGAUUAAUACGCUGAUAGUACAUGAGGAUCACCCAUGUAGAAGGAAUAAAAA [JR_Exc002_Sub409] | 35.1 | 19.1
AAGGGACAUGAGGAUCACCCAUGUCAGGAUAUGAUGCGAAUAAAGAAAGAAGAAAGCAUCAGAAGGGACGCCAA [58%, Disencluded 3, 5] | 25.4 | 39.5
AGUAUGCGAGGAUAUACAUGAGGAUCACCCAUGUGAGAGAUAAAAGUGAGAAAGAAAAGUAGAAGGCGCGUACA [JL Lego Mod 21] | 50.7 | 326
AGGAAACAUGAGGAUCACCCAUGUCAGGAUAUACAAAAGAAAAGAAAAGAAAGAAGAAGUAGAAGGGACACGAA [Double Falcon] | 25.1 | 22.5
AAAAAGUGAGGAUAUUCGGAUAGGAAAACGAAAACCUAUCCGAAGAAGGCACAUGAGGAUCACCCAUGUAAAGA [Mat - Exaclusion 4 - Eli mod - D40] | 30.8 | 40.2
